Laboratory results: publication PMC3029278

Biological target: CEACAM1-4L-HA (HA-tagged human CEACAM1) (human) (UniProt P13688)
Sequence of UniProt P13688 (P13688 35-526): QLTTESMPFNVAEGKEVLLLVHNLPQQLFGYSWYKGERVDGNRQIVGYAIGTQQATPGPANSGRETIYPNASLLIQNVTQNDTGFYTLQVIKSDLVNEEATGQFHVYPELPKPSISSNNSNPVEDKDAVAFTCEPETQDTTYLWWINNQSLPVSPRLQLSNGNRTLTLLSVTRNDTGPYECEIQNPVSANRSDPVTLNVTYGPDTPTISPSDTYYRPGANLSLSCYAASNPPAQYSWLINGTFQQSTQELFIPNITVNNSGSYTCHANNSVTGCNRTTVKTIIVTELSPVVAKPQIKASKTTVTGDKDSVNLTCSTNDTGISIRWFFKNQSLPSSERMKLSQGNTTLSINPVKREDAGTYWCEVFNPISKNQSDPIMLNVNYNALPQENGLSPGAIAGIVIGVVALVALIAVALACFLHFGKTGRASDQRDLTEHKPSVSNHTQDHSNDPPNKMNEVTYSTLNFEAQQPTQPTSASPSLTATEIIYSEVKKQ

Substance: Opa52 protein of Neisseria gonorrhoeae strain MS11 (natural protein)
- internalised OpaCEA-positive gonococci in CEACAM1-transfected 293 cells (gentamicin protection assay, 2 h): 210000 cfu/ml
